{"source": "the FLAb antibody collection", "proteins": {"B1": {"name": "unnamed (protein)", "chain 1": "QVQLVQSGAEVKKPGASVKVSCKASGYTFTSYWMHWVRQAPGQGLEWIGNINPSNGGTNYNEKFKSKATMTRDTSTSTAYMELSSLRSEDTAVYYCELMQGYWGQGTLVTVSS", "chain 2": "DIVMTQSPLSNPVTLGQPVSISCRSSKSLLYKDGKTYLNWFLQRPGQSPQLLIYLMSTRASGVPDRFSGGGSGTDFTLKISRVEAEDVGVYYCQQLVEYPLTFGQGTKLEIK"}, "B2": {"name": "unnamed (protein)", "chain 1": "QVTLRESGPALVKPTQTLTLTCTFSGFSLSTSGMSVGWIRQPPGKALEWLADIWWDDKKDYNPSLKSRLTISKDTSKNQVVLKVTNMDPADTATYYCARSMITNWYFDVWGAGTTVTVSS", "chain 2": "DIQMTQSPSTLSASVGDRVTITCKCQLSVGYMHWYQQKPGKAPKLLIYDTSKLASGVPSRFSGSGSGTEFTLTISSLQPDDFATYYCFQGSGYPFTFGGGTKLEIK"}, "B3": {"name": "unnamed (protein)", "chain 1": "EGQLVQSGGGLVHPGGSLRLSCAGSGFTFSSYGMHWVRQAPGKGLEWVSGIGTGGGTYSTDSVKGRFTISRDNAKNSLYLQMNSLRAEDMAVYYCARGDYYGSGSFFDCWGQGTLVTVSS", "chain 2": "DIQMTQSPSSLSASVGDRVTITCRASQGISSWLAWYQQKPEKAPKSLIYAASSLQSGVPSRFSGSGSGTDFTLTISSLQPEDFATYYCQQYNSYPPTFGQGTKLEIK"}, "B4": {"name": "unnamed (protein)", "chain 1": "QVQLQESGPGLVKPSETLSLTCTVSGGSVSSGDYYWTWIRQSPGKGLEWIGHIYYSGNTNYNPSLKSRLTISIDTSKTQFSLKLSSVTAADTAIYYCVRDRVTGAFDIWGQGTMVTVSS", "chain 2": "DIQMTQSPSSLSASVGDRVTITCQASQDISNYLNWYQQKPGKAPKLLIYDASNLETGVPSRFSGSGSGTDFTFTISSLQPEDIATYFCQHFDHLPLAFGGGTKVEIK"}, "B5": {"name": "unnamed (protein)", "chain 1": "EVQLVESGGGLVQPGGSMRLSCVASGFPFSNYWMNWVRQAPGKGLEWVGEIRLKSNNYTTHYAESVKGRFTISRDDSKNSLYLQMNSLKTEDTAVYYCTRHYYFDYWGQGTLVTVSS", "chain 2": "DIVMTQSPLSNPVTPGEPASISCRSSKSLLHSNGITYFFWYLQKPGQSPQLLIYQMSNLASGVPDRFSGSGSGTDFTLRISRVEAEDVGVYYCAQNLELPPTFGQGTKVEIK"}, "B6": {"name": "unnamed (protein)", "chain 1": "EVQLVESGGGLVQPGGSLRLSCAASGYTFIDYYMNWVRQAPGKGLEWVGDINLDNSGTHYNQKFKGRFTISRDKSKNTAYLQMNSLRAEDTAVYYCAREGVYHDYDDYAMDYWGQGTLVTVSS", "chain 2": "DIQMTQSPSSLSASVGDRVTITCRTSQSLVHINAITYLHWYQQKPGKAPKLLIYRVSNRFSGVPSRFSGSGSGTDFTLTISSLQPEDFATYYCGQSTHVPLTFGQGTKVEIK"}, "B7": {"name": "unnamed (protein)", "chain 1": "EVQLVESGGGLVQPGGSLRLSCAASGYTFTSYVIHWVRQAPGKGLEWVGYNNPYNAGTNYNEKFKGRFTISSDKSKNTAYLQMNSLRAEDTAVYYCSRPTMLPWFAYWGQGTLVTVSS", "chain 2": "DIQMTQSPSSLSASVGDRVTITCRASQAVSSAVAWYQQKPGKAPKLLIYSASHRYTGVPSRFSGSGSGTDFTLTISSLQPEDFATYYCQESYSTPWTFGQGTKVEIK"}, "B8": {"name": "unnamed (protein)", "chain 1": "QVQLVQSGVEVKKPGASVKVSCKASGYTFTNYYMYWVRQAPGQGLEWMGGINPSNGGTNFNEKFKNRVTLTTDSSTTTAYMELKSLQFDDTAVYYCARRDYRFDMGFDYWGQGTTVTVSS", "chain 2": "EIVLTQSPATLSLSPGERATLSCRASKGVSTSGYSYLHWYQQKPGQAPRLLIYLASYLESGVPARFSGSGSGTDFTLTISSLEPEDFAVYYCQHSRDLPLTFGGGTKVEIK"}, "B9": {"name": "unnamed (protein)", "chain 1": "EVQLVESGGGLVQPGGSLRLSCAASGFTFTDYTMDWVRQAPGKGLEWVADVNPNSGGSIYNQRFKGRFTLSVDRSKNTLYLQMNSLRAEDTAVYYCARNLGPSFYFDYWGQGTLVTVSS", "chain 2": "B7 chain 2 with R24K, A28D, S31I, A32G, H53Y, E90Q, S91Y, S93I, T94Y, W96Y"}, "B10": {"name": "unnamed (protein)", "chain 1": "QVQLVQSGAEVKKPGASVKVSCKASGYIFSNYWIQWVRQAPGQGLEWMGEILPGSGSTEYAQKFQGRVTMTADTSTSTAYMELSSLRSEDTAVYYCARYFFGSSPNWYFVWGQGT", "chain 2": "DIQMTQSPSLSASVGDRVTITCGASENIYGALNWYQRKPGKAPKLLIYGATNLADGVPSRFSGSGSGTDYTLTISSLQPEDFATYYCQNVLNTPLTFGQGTKVEIK"}, "B11": {"name": "unnamed (protein)", "chain 1": "EVQLLESGGGLVQPGGSLRLSCAASGFTFSSYIMMWVRQAPGKGLEWVSSIYPSGGITFYADTVKGRFTISRDNSKNTLYLQMNSLRAEDTAVYYCARIKLGTVTTVDYWGQGTLVTVSS", "chain 2": "QSALTQPASVSGSPGQSITISCTGTSSDVGGYNYVSWYQQHPGKAPKLMIYDVSNRPSGVSNRFSGSKSGNTASLTISGLQAEDEADYYCSSYTSSSTRVFGTGTKVTVL"}, "B12": {"name": "unnamed (protein)", "chain 1": "EVQLVESGGGLVQPGGSLRLSCAASGYEFSRSWMNWVRQAPGKGLEWVGRIYPGDGDTNYSGKFKGRFTISADTSKNTAYLQMNSLRAEDTAVYYCARDGSSWDWYFDVWGQGTLVTVSS", "chain 2": "DIQMTQSPSSLSASVGDRVTITCRSSQSIVHSVGNTFLEWYQQKPGKAPKLLIYKVSNRFSGVPSRFSGSGSGTDFTLTISSLQPEDFATYYCFQGSQFPYTFGQGTKVEIK"}, "B13": {"name": "unnamed (protein)", "chain 1": "EVQLVESGGGLVQPGGSLRLSCAASGYTFSSYWIEWVRQAPGKGLEWIGEILPGGGDTNYNEIFKGRATFSADTSKNTAYLQMNSLRAEDTAVYYCTRRVPIRLDYWGQGTLVTVSS", "chain 2": "DIQLTQSPSSLSASVGDRVTITCKASQSVDYEGDSFLNWYQQKPGKAPKLLIYAASNLESGVPSRFSGSGSGTDFTLTISSLQPEDFATYYCQQSNEDPLTFGQGTKVEIK"}, "B14": {"name": "unnamed (protein)", "chain 1": "QVQLVQSGAEVKKPGASVKVSCKASGYYTEAYYIHWVRQAPGQGLEWMGRIDPATGNTKYAPRLQDRVTMTRDTSTSTVYMELSSLRSEDTAVYYCASLYSLPVYWGQGTTVTVSS", "chain 2": "DVVMTQSPLSLPVTLGQPASISCKSSQSLLYSDAKTYLNWFQQRPGQSPRRLIYQISRLDPGVPDRFSGSGSGTDFTLKISRVEAEDVGVYYCLQGTHYPVLFGQGTRLEIK"}, "B15": {"name": "unnamed (protein)", "chain 1": "EVQLVESGGGLVQPGGSLRLSCAASGFTFSNYGMSWVRQAPGKGLEWVASISSGGGSTYYPDNVKGRFTISRDDAKNSLYLQMNSLRAEDTAVYYCARGGAGIDYWGQGTLVTVSS", "chain 2": "DIQMTQSPSSLSASVGDRVTITCKSIQTLLYSSNQKNYLAWFQQKPGKAPKLLIYWASIRKSGVPSRFSGSGSGTDFTLTISSLQPEDLATYYCQQYYSYPLTFGGGTKLEIK"}, "B16": {"name": "unnamed (protein)", "chain 1": "EVQLVESGGGLVQPGGSLRLSCAASGFTFSSYWMSWVRQAPGKGLEWVAYIKQDGNEKYYVDSVKGRFTISRDNAKNSLYLQMNSLRAEDTAVYYCAREGILWFGDLPTFWGQGTLVTVSS", "chain 2": "B3 chain 2 with S31N, N92D, P96R, L104V"}, "B17": {"name": "unnamed (protein)", "chain 1": "QVQLQQSGAELVKPGASVKLSCKASGYTFTSYDINWVRQRPEQGLEWIGWIFPGDGSTKYNEKFKGKATLTTDKSSSTAYMQLSRLTSEDSAVYFCAREDYYDNSYYFDYWGQGTTLTVSS", "chain 2": "DIQMTQTTSSLSASLGDRVTISCRASQDISNYLNWYQQKPDGTVKLLIYYTSRLHSGVPSRFSGSGSGTDYSLTISNLEQEDIATYFCQQGNTLPWTFGGGTKLEIK"}, "B18": {"name": "unnamed (protein)", "chain 1": "EVQLVQSGGGLVKPGGSLRLSCAASGFTFSSYSMNWVRQAPGKGLEWVSSISSSSSYIYYADSVKGRFTISRDNAKNSLYLQMNSLRAEDTAVYYCARVTDAFDIWGQGTMVTVSS", "chain 2": "DIQMTQSPSSVSASIGDRVTITCRASQGIDNWLGWYQQKPGKAPKLLIYDASNLDTGVPSRFSGSGSGTYFTLTISSLQAEDFAVYFCQQAKAFPPTFGGGTKVDIK"}, "B19": {"name": "unnamed (protein)", "chain 1": "EVQLVESGGGLVQPGGSLRLSCAASGYDFTHYGMNWVRQAPGKGLEWVGWINTYTGEPTYAADFKRRFTFSLDTSKSTAYLQMNSLRAEDTAVYYCAKYPYYYGTSHWYFDVWGQGTLVTVSS", "chain 2": "DIQLTQSPSSLSASVGDRVTITCSASQDISNYLNWYQQKPGKAPKVLIYFTSSLHSGVPSRFSGSGSGTDFTLTISSLQPEDFATYYCQQYSTVPWTFGQGTKVEIK"}}, "experiment": "patients with anti-drug antibodies; higher = more immunogenic", "note": "Positions count from the first letter of the chain named. Values joined by “and” are separate entries in the source; they are usually repeats but may differ in a detail not shown here. Identical values can stand only once."}
{"protein": "B1", "values": [{"measurement": "patients with anti-drug antibodies", "value": 2.5, "unit": "%"}]}
{"protein": "B2", "values": [{"measurement": "patients with anti-drug antibodies", "value": 1.1, "unit": "%"}]}
{"protein": "B3", "values": [{"measurement": "patients with anti-drug antibodies", "value": 0, "unit": "%"}]}
{"protein": "B4", "values": [{"measurement": "patients with anti-drug antibodies", "value": 2.8, "unit": "%"}]}
{"protein": "B5", "values": [{"measurement": "patients with anti-drug antibodies", "value": "25% and 9.5%"}]}
{"protein": "B6", "values": [{"measurement": "patients with anti-drug antibodies", "value": 4.7, "unit": "%"}]}
{"protein": "B7", "values": [{"measurement": "patients with anti-drug antibodies", "value": 4.7, "unit": "%"}]}
{"protein": "B8", "values": [{"measurement": "patients with anti-drug antibodies", "value": 1.7, "unit": "%"}]}
{"protein": "B9", "values": [{"measurement": "patients with anti-drug antibodies", "value": 2.8, "unit": "%"}]}
{"protein": "B10", "values": [{"measurement": "patients with anti-drug antibodies", "value": 0, "unit": "%"}]}
{"protein": "B11", "values": [{"measurement": "patients with anti-drug antibodies", "value": 5, "unit": "%"}]}
{"protein": "B12", "values": [{"measurement": "patients with anti-drug antibodies", "value": 1.4, "unit": "%"}]}
{"protein": "B13", "values": [{"measurement": "patients with anti-drug antibodies", "value": 2.6, "unit": "%"}]}
{"protein": "B14", "values": [{"measurement": "patients with anti-drug antibodies", "value": 0, "unit": "%"}]}
{"protein": "B15", "values": [{"measurement": "patients with anti-drug antibodies", "value": 0, "unit": "%"}]}
{"protein": "B16", "values": [{"measurement": "patients with anti-drug antibodies", "value": 0, "unit": "%"}]}
{"protein": "B17", "values": [{"measurement": "patients with anti-drug antibodies", "value": 85, "unit": "%"}]}
{"protein": "B18", "values": [{"measurement": "patients with anti-drug antibodies", "value": 4.1, "unit": "%"}]}
{"protein": "B19", "values": [{"measurement": "patients with anti-drug antibodies", "value": 3.5, "unit": "%"}]}
